This is an account of results in PMC11139282, “Structure and activity of the septal peptidoglycan hydrolysis machinery crucial for bacterial cell division” (PLOS Biology, 2024).

B1: FtsX(His&Myc) [E. coli K-12] / FtsE(Flag) [E. coli K-12] (parent)
chain 1: MIRFEHVSKAYLGGRQALQGVTFHMQPGEMAFLTGHSGAGKSTLLKLICGIERPSAGKIWFSGHDITRLKNREVPFLRRQIGMIFQDHHLLMDRTVYDNVAIPLIIAGASGDDIRRRVSAALDKVGLLDKAKNFPIQLSGGEQQRVGIARAVVNKPAVLLADEPTGNLDDALSEGILRLFEEFNRVGVTVLMATHDINLISRRSYRMLTLSDGHLHGGVGHE
chain 2: MNKRDAINHIRQFGGRLDRFRKSVGGSGDGGRNAPKRAKSSPKPVNRKTNVFNEQVRYAFHGALQDLKSKPFATFLTVMVIAISLTLPSVCYMVYKNVNQAATQYYPSPQITVYLQKTLDDDAAAGVVAQLQAEQGVEKVNYLSREDALGEFRNWSGFGGALDMLEENPLPAVAVVIPKLDFQGTESLNTLRDRITQINGIDEVRMDDSWFARLAALTGLVGRVSAMIGVLMVAAVFLVIGNSVRLSIFARRDSINVQKLIGATDGFILRPFLYGGALLGFSGALLSLILSEILVLRLSSAVAEVAQVFGTKFDINGLSFDECLLLLLVCSMIGWVAAWLATVQHLRHFTPE

The variants in the experiment derive from B1. As to the kind of experiment: western blot of membrane fraction, quantified (FtsE retained on membrane with FtsX). The following applies: with FtsE(Flag) [E. coli K-12]; parent: 1.3; read off a plot. A general note: A western blot detects proteins with antibodies after separation by electrophoresis.
For the variant chain 2 MNKRDAINHIRQFGGRLDRFRKSVGGSGDGGRNAPKRAKSSPKPVNRKTNVFNEQVRYAFHGALQDLKSKPFATFLTVMVIAISLTLPSVCYMVYKNVNQAATQYYPSPQITVYLQKTLDDDAAAGVVAQLQAEQGVEKVNYLSREDALGEFRNWSGFGGALDMLEENPLPAVAVVIPKLDFQGTESLNTLRDRITQINGIDEVRMDDSWFARLAALTGLVGRVSAMIGVLMVAAVFLVIGNSVRLSIFARRDSINVQKLIGAKDGFILRPFLYGGALLGFSGALLSLILSEILVLRLSSAVAEVAQVFGTKFDINGLSFDECLLLLLVCSMIGWVAAWLATVQHLRHFTPE [chain 2 T264K], the response (OmpC adjusted) is 0.51.

Regarding chain 2 MNKRDAINHIRQFGGRLDRFRKSVGGSGDGGRNAPKRAKSSPKPVNRKTNVFNEQVRYAFHGALQDLKSKPFATFLTVMVIAISLTLPSVCYMVYKNVNQAATQYYPSPQITVYLQKTLDDDAAAGVVAQLQAEQGVEKVNYLSREDALGEFRNWSGFGGALDMLEENPLPAVAVVIPKLDFQGTESLNTLRDRITQINGIDEVRMDDSWFARLAALTGLVGRVSAMIGVLMVAAVFLVIGNSVRLSIFARRDSINPQKLIGATDGFILRPFLYGGALLGFSGALLSLILSEILVLRLSSAVAEVAQVFGTKFDINGLSFDECLLLLLVCSMIGWVAAWLATVQHLRHFTPE [chain 2 V257P], the response (OmpC adjusted) came out at 0.38.

For chain 2 MNKRDAINHIRQFGGRLDRFRKSVGGSGDGGRNAPKRAKSSPKPVNRKTNVFNEQVRYAFHGALQDLKSKPFATFLTVMVIAISLTLPSVCYMVYKNVNQAATQYYPSPQITVYLQKTLDDDAAAGVVAQLQAEQGVEKVNYLSREDALGEFRNWSGFGGALDMLEENPLPAVAVVIPKLDFQGTESLNTLRDRITQINGIDEVRMDDSWFARLAALTGLVGRVSAMIGVLMVAAVFLVIGNSVRLSIFARRDSINVQKLIGATDGAILRPFLYGGALLGFSGALLSLILSEILVLRLSSAVAEVAQVFGTKFDINGLSFDECLLLLLVCSMIGWVAAWLATVQHLRHFTPE [chain 2 F267A], the response (OmpC adjusted) stood at 0.5.

As for chain 2 MNKRDAINHIRQFGGRLDRFRKSVGGSGDGGRNAPKRAKSSPKPVNRKTNVFNEQVRYAFHGALQDLKSKPFATFLTVMVIAISLTLPSVCYMVYKNVNQAATQYYPSPQITVYLQKTLDDDAAAGVVAQLQAEQGVEKVNYLSREDALGEFRNWSGFGGALDMLEENPLPAVAVVIPKLDFQGTESLNTLRDRITQINGIDEVRMDDSWFARLAALTGLVGRVSAMIGVLMVAAVFLVIGNSVRLSIFARRDSINVQKLDGATDGFILRPFLYGGALLGFSGALLSLILSEILVLRLSSAVAEVAQVFGTKFDINGLSFDECLLLLLVCSMIGWVAAWLATVQHLRHFTPE [chain 2 I261D], the response (OmpC adjusted) amounted to 0.11.
